Measured values reported in patent publication US20150050670A1.

B1: γ9-cl3wt/δ2-cl3wt (protein)
chain 1: AGHLEQPQISSTKTLSKTARLECVVSGITISATSVYWYRERPGEVIQFLVSISYDGTVRKESGIPSGKFEVDRIPETSTSTLTIHNVEKQDIATYYCALWEEELGKKIKVFGPGTKLIIT
chain 2: AIELVPEHQTVPVSIGVPATLRCSMKGEAIGNYYINWYRKTQGNTMTFIYREKDIYGPGFKDNFQGDIDIAKNLAVLKILAPSERDEGSYYCACDLLGYTDKLIFGKGTRVTVEP
B2: γ9-cl3wt/δ2-G115wt (protein)
chain 1: AGHLEQPQISSTKTLSKTARLECVVSGITISATSVYWYRERPGEVIQFLVSISYDGTVRKESGIPSGKFEVDRIPETSTSTLTIHNVEKQDIATYYCALWEEELGKKIKVFGPGTKLIIT
chain 2: AIELVPEHQTVPVSIGVPATLRCSMKGEAIGNYYINWYRKTQGNTMTFIYREKDIYGPGFKDNFQGDIDIAKNLAVLKILAPSERDEGSYYCACDTLGMGGEYTDKLIFGKGTRVTVEP

Assays:
Settings in all cases: chains Vgamma:Vdelta
[1] = target: peptide on (human); experiment: IFNγ ELISA, CD4+ transduced T-cells against Daudi, pamidronate titration; full-length, on cells; design: unit not given here
[2] = target: peptide on (human); experiment: IFNγ ELISA, CD4+ transduced T-cells against Daudi, pamidronate titration; against γ9-G115wt/δ2-G115wt (max. 800 pg/ml); full-length, on cells
[3] = target: peptide on (human); experiment: IFNγ ELISA, CD4+ transduced T-cells against Daudi, pamidronate titration; against γ9-G115wt/δ2-G115wt (max. 800 pg/ml); the clone number is missing in the printed name; full-length, on cells

Binder | EC50 of pamidronate [1] | maximal IFNγ secretion [2] | maximal IFNγ secretion [3]
B1 | 30 | 600 µg/mL | –
B2 | – | – | 100 pg/mL
